From patent publication US20220402981A1 (Dana-Farber, published 2022)

Experiments:
[1] = target: T1, full-length human DCAF15 (human, UniProt Q66K64 1-600); assay: cryo-EM at ~4.4 Å with E7820
T1 construct: mature; As in the cryo-EM and cross-linking complexes; also called full-length DCAF15

[2] = target: T2, DCAF15split (human, UniProt Q66K64 30-264; Q66K64 383-600); assay: crystal structure with E7820
T2 construct: range 30-264;range 383-600; DCAF15 as two fragments in the crystal structures (PDB 6Q0R, 6Q0V, 6Q0W); also called Strep II Avi-DCAF15NTD (residues 30-264)-Strep II Avi-DCAF15CTD (residues 383-600); DCAF15-NTD; not shown: N-terminal Strep II Avi tag

B1: His6-RBM39RRM2 (other)
chain: GSAGPMRLYVGSLHFNITEDMLRGIFEPFGRIESIQLMMDSETGRSKGYGFITFSDSECAKKALEQLNGFELAGRPMKVGHVTERTDA
notes: RBM39RRM2 as in the crystals, cryo-EM and cross-linking complexes; not shown: N-terminal His6 tag
What does the source list for B1?
binding result [1]: binds; binding result [2]: binds
